Measurements as given in article PMC6614362.

Legend:
[1] = target: RsbR:RsbS complex (preformed, purified by gel filtration) (L. monocytogenes); assay: SEC; purified RsbR and RsbS mixed, complex taken from Superose 6 void volume, combined with excess RsbT (4 °C, 4 h), Superose 6 in 20 mM Tris HCl pH 8.5, 150 mM NaCl, 1 mM ADP, 1 mM DTT; fractions analysed by SDS-PAGE
[2] = target: RsbS (Listeria monocytogenes stressosome component) (L. monocytogenes); assay: cryo-EM structure; stressosome assembled from purified RsbR, RsbS and RsbT with 1 mM ADP; 20 µg/ml on Quantifoil grids; maps at 4.48 Å (no symmetry) and 3.38 Å (icosahedral symmetry, turrets masked out)
[3] = target: RsbS (Listeria monocytogenes stressosome component) (L. monocytogenes); assay: SEC; purified RsbR and RsbS mixed, complex taken from Superose 6 void volume, combined with excess RsbT (4 °C, 4 h), Superose 6 in 20 mM Tris HCl pH 8.5, 150 mM NaCl, 1 mM ADP, 1 mM DTT; fractions analysed by SDS-PAGE
[4] = target: RsbR (Listeria monocytogenes stressosome component) (L. monocytogenes); assay: cryo-EM structure; stressosome assembled from purified RsbR, RsbS and RsbT with 1 mM ADP; 20 µg/ml on Quantifoil grids; maps at 4.48 Å (no symmetry) and 3.38 Å (icosahedral symmetry, turrets masked out)

## RsbT (Listeria monocytogenes stressosome kinase) (enzyme)
[1]
  stoichiometry N (RsbT per RsbS (RsbR:RsbS:RsbT 2:1:1)): 1

## RsbS (Listeria monocytogenes stressosome component) (natural protein)
[2]
  stoichiometry N: 2

## RsbR (Listeria monocytogenes stressosome component) (natural protein)
[3]
  stoichiometry N (RsbR per RsbS): 2
[4]
  stoichiometry N: 2
